Laboratory results taken from the RNAGym collection of RNA variant scans (doi:10.7554/elife.90254).

B1: LINE1-full (parent)
chain: UACGUAGGUGGUUUUCCCCUGAUAGUGCUAAGGGGGCCUGGAAGUUUGGACUGGGCAGAGCUCAACACAGCGUGGCAAAGUGGCUGUGGCUAGACUGCCUCUCUGGAUUCCUCGUCACUCAGCAGGGCAUCUCUGAGAGAAAUGCC

Variants of: B1
Assay: self-cleavage, relative activity (ratio to wild type); higher = more cleavage; in vitro, sequencing; the parent is a self-cleaving ribozyme
In the case of UACGUAGGUGGUUUUCCCCUGAUAGUGCUAAGGGGGCCUGGAAGUUUGGACUGGGCAGAGCUCAACACAGCGUGGCAAAGUGGCUGCGGCUAGACUGCCUCUCUGGAUUCCUCGUCACUCAGCAGUGCAUCUCUGAGAGAAAUGCC, the self-cleavage is reported as 0.3.
For UACGUAGGUGGUUUUCCCCUGAUAGUGCUAAGGGGGCCUGGAAGUUUGGACUGGGCAGAGCUCAACACAGCGUGGCAAAGUGGCUGUGGCUAGACUGCCUCUCUGGAGUCCUCGUCACUCACCAGGGCAUCUCUGAGAGAAAUGCC, the self-cleavage was 0.
UACGUAUGUGGUUUUCCCCUGAUAGUGCUAAGGGGGCCUGGAAGUUAGGACUGGGCAGAGCUCAACACAGCGUGGCAAAGUGGCUGUGGCUAGACUGCCUCUCUGGAUUCCUCGUCACUCAGCAGGGCAUCUCUGAGAGAAAUGCC showed a self-cleavage of 1.2.
For UACGUAGGUGGUUUUCCCCUGAUAGUGCUAGGGGGGCCUGGAAGUUUGGACUGGGCAGAGCUCAACACAGCGUGGCAAAGUGGCUGUGGCUAGACUGCCUCUCUGGAUUCCUCGUCACUCAGCAGGGCAUCUCUGAGAGAAGUGCC, the self-cleavage was 1.17.
With UACGUAGGUGGUUUUCCCCUGAUAGUGCUAAGGGGGCCUGGAAGUUUGGACUGGGCAGAGCUCAACACAGCGUGGCAAAGUGGCUGUGGCUAGACUGCCUCUCUCGAUUCCUCGUCACUCAGCAGGGCAUCUCUGAGAGGAAUGCC the self-cleavage was 1.83.
Work on UAUGUAGGUGGUUUUCCCCUGAUAGUGCUAAGGGGGCCUGGAAGUUUGGACUGGGCAGAGCUCAACGCAGCGUGGCAAAGUGGCUGUGGCUAGACUGCCUCUCUGGAUUCCUCGUCACUCAGCAGGGCAUCUCUGAGAGAAAUGCC yielded a self-cleavage of 0.
Variant UACGUAGGUGGUUUUCCCCUGAUAGUGCUAAGGGGGCCUGGAAGUUUGGGCUGGGCAGAGCUCAACACAGCGUGGCAAAGUGGCUGUGGCUAGACUGCCUCUCUGGAUUCCUCGUCACUCAGCAGGGCAUCUCUGUGAGAAAUGCC has a self-cleavage of 1.15.
Work on UACGUAGGUGGUUUUCCCCUGAUAGUGCUAAGGGGGCCUGGAAGUUUGGACUGGGCAGAGCUCAACACAGCGUGGCAAAGUGGCUGUGGCUAGACUGCCUCUCUGGAUUCCUCGUCACUCGGCAGGGCAACUCUGAGAGAAAUGCC yielded a self-cleavage of 1.25.
UACGUAGGUGGUUUUCCCCCGAUAGUGCUAAGGGGGCCUGGAAGUUUGGACUGGGCAGAGCUCAACACAGCGUGGUAAAGUGGCUGUGGCUAGACUGCCUCUCUGGAUUCCUCGUCACUCAGCAGGGCAUCUCUGAGAGAAAUGCC gave a self-cleavage of 2.18.
Work on UACGUAGGUGGUUUUCCCCUGAUAGUGCUAAGGGGGCCUGGAAGUUUGGACUGGGCAGAGCUCAACACAGCGUGGCAAAGUGGCUGUGGCUAGACUGCCUCUCUGGAUUCCUCGACACUCAGCAGGGCGUCUCUGAGAGAAAUGCC yielded a self-cleavage of 1.9.
With UACGUAGGUGGUUUUCCCCUGAUAGUGCUAAGGGGGCCUGGAAGUUUGGACCGGGCAGAGCUCAACACAGUGUGGCAAAGUGGCUGUGGCUAGACUGCCUCUCUGGAUUCCUCGUCACUCAGCAGGGCAUCUCUGAGAGAAAUGCC the self-cleavage was 0.7.
UACGUAGGUGGUUUUCCCCUGAUAGUGCUAAGGGGGCCUGGAAGUUUGGACAGCGCAGAGCUCAACACAGCGUGGCAAAGUGGCUGUGGCUAGACUGCCUCUCUGGAUUCCUCGUCACUCAGCAGGGCAUCUCUGAGAGAAAUGCC gave a self-cleavage of 0.43.
In the case of UACGUAGGUGGUUUUCCCCUGAUAGUGCUAAGGGGGCCUGGAAGUUUGGACUGGGCAGAGCUCAACACAGCGUGGCAAAGUGGCUGUGGCUAGACUGCCUCUCAGGUUUCCUCGUCACUCAGCAGGGCAUCUCUGAGAGAAAUGCC, the self-cleavage is reported as 1.31.
For UACGUAGGUGGUUUUCCCCUGAUAGUGCUAAGGGGGCCUGGAAGUUUGGACUGGGCAGAGCUCAACACAGCGUGGCAAAGUGGCUGUGGCUGGACUGCCUCUCCGGAUUCCUCGUCACUCAGCAGGGCAUCUCUGAGAGAAAUGCC, the self-cleavage was 0.05.
For UACGUAGGUGGUUUUCCCCUGAUAGUGCUAAGGGGGCCUGGAAGUUUGGUCUGGGCAGAGCUCAACACAGCGUGGCAACGUGGCUGUGGCUAGACUGCCUCUCUGGAUUCCUCGUCACUCAGCAGGGCAUCUCUGAGAGAAAUGCC, the self-cleavage was 1.3.
UACGUAGGUGCUUUUCCCCUGAUAGUGCUAAGGGGGCCUGGAAGUUUUGACUGGGCAGAGCUCAACACAGCGUGGCAAAGUGGCUGUGGCUAGACUGCCUCUCUGGAUUCCUCGUCACUCAGCAGGGCAUCUCUGAGAGAAAUGCC showed a self-cleavage of 1.25.
With UACGUAGGUGGUUUUCCCCUGAUAGUGCUAAGGGGGCCUGGAAGUUCGGACUGGGCAGAGCUCAACACAGCGUGGCAAAGCGGCUGUGGCUAGACUGCCUCUCUGGAUUCCUCGUCACUCAGCAGGGCAUCUCUGAGAGAAAUGCC the self-cleavage was 1.51.
For UACGUAGGUGGUUUUCCCCUGAUAGUGCUAAGGCGGCCUGGAAGUUUGGACUGGGCAGAGCUCAACACAGCGUGGCAAAGUGGCUGUGGCUAGACUGCCUCUCUGGAUUCCUCGUCACUCAGCAGGGCACCUCUGAGAGAAAUGCC, the self-cleavage was 0.88.
With UACGUAGGUGGUUUUCCCCUGAUAGUGCUAGGGGGGCCUGGAAGUCUGGACUGGGCAGAGCUCAACACAGCGUGGCAAAGUGGCUGUGGCUAGACUGCCUCUCUGGAUUCCUCGUCACUCAGCAGGGCAUCUCUGAGAGAAAUGCC the self-cleavage was 1.67.
Variant UACGUAGGUGGUUUUCCCCUGGUAGUGCUAAGGGGGCCUGGAAGUUUGGACUGGGCAGAGCUCAACACAGCGUGGCAAUGUGGCUGUGGCUAGACUGCCUCUCUGGAUUCCUCGUCACUCAGCAGGGCAUCUCUGAGAGAAAUGCC has a self-cleavage of 1.51.
Work on UACGUAGGUGGUUUUCCCCUGAUAGUGCUAAGGGGGCCUGGAAGUUUGGACUGGGCAGAGCUCAACACGGCGUGGCAAAGUGGCUGUGGCUAGACUGCCUCUCUGGAUUCCUCGUCACUCAGCAGGGCAUAUCUGAGAGAAAUGCC yielded a self-cleavage of 1.01.
UACGUUGGUGGUUUUCCCCUGAUAGUGCUAAGGGGGCCUGGAAGUUUGGACUGUGCAGAGCUCAACACAGCGUGGCAAAGUGGCUGUGGCUAGACUGCCUCUCUGGAUUCCUCGUCACUCAGCAGGGCAUCUCUGAGAGAAAUGCC gave a self-cleavage of 0.94.
Work on UAAGUAGGUGGUUUUCCCCUGAUAGUGCUAAGGGGGCCUGGAAGUUUGGACUGGGCAGAGCUCAACACAGCGUGGCAAAGUGGCUGUGGCUAGACUGACUCUCUGGAUUCCUCGUCACUCAGCAGGGCAUCUCUGAGAGAAAUGCC yielded a self-cleavage of 0.28.
With UACGUAGGUGGUUUUCCCCUGAUAGUGCUAAGGGGCCCUGGAAGUUUGGACUGGGCAGAGCUCAACACAGCGUGGCAAAGUUGCUGUGGCUAGACUGCCUCUCUGGAUUCCUCGUCACUCAGCAGGGCAUCUCUGAGAGAAAUGCC the self-cleavage was 1.65.
Work on UACGUUGGUGGUUUUCCCCUGAUAGUGCUGAGGGGGCCUGGAAGUUUGGACUGGGCAGAGCUCAACACAGCGUGGCAAAGUGGCUGUGGCUAGACUGCCUCUCUGGAUUCCUCGUCACUCAGCAGGGCAUCUCUGAGAGAAAUGCC yielded a self-cleavage of 1.01.
With UACGUAGGUGGUUUUCCCCUGAUAGUGCUAAGGGGGCCUGGUAGUUUGGACUGGGCAGAGCUCAACACAGCGUGGCUAAGUGGCUGUGGCUAGACUGCCUCUCUGGAUUCCUCGUCACUCAGCAGGGCAUCUCUGAGAGAAAUGCC the self-cleavage was 0.83.
For UACGUAGGUGGUCUCCCCCUGAUAGUGCUAAGGGGGCCUGGAAGUUUGGACUGGGCAGAGCUCAACACAGCGUGGCAAAGUGGCUGUGGCUAGACUGCCUCUCUGGAUUCCUCGUCACUCAGCAGGGCAUCUCUGAGAGAAAUGCC, the self-cleavage was 1.03.
With UACGUAGGUGGUUUCCCCCUGAUAGUGCUAAGGGGGCCUGGAAGUUUGGACUGGGCAGAGCUCAACACAGCGUGGCAAAGUGGCUGUGGCUAGACUGCCUCUCUGGAUUCCUCGUCACUCAGCAGGGCAUCUCUGAGAGUAAUGCC the self-cleavage was 1.61.
For UACGUAGGUGGUCUUCUCCUGAUAGUGCUAAGGGGGCCUGGAAGUUUGGACUGGGCAGAGCUCAACACAGCGUGGCAAAGUGGCUGUGGCUAGACUGCCUCUCUGGAUUCCUCGUCACUCAGCAGGGCAUCUCUGAGAGAAAUGCC, the self-cleavage was 1.19.
Variant UACGUAGGUGGUUUUCCCCUGAUAGUGCUAAGGGGGCCUGGAAGUUUGGAUUGGGCAGAGCUCAGCACAGCGUGGCAAAGUGGCUGUGGCUAGACUGCCUCUCUGGAUUCCUCGUCACUCAGCAGGGCAUCUCUGAGAGAAAUGCC has a self-cleavage of 0.05.
For UACGUAGGCGGUUUUCCCCUGAUAGUGCUAAGGGGGCCUGGAAGUUUGGACUGGGCAGAGCUCAACACAGCGUGGCAAAGUGGCUGUGGCUAGACUGCCUCUCUGGAUUCCUCGUCACUCAGCAGGGCAUCUCUGAGAGAACUGCC, the self-cleavage was 0.83.
With UACGUGGGUGGUUUUCCCCUGAUAGUGCUAAGGGGGCCUGGAAGUUUGGACUGGGCAGGGCUCAACACAGCGUGGCAAAGUGGCUGUGGCUAGACUGCCUCUCUGGAUUCCUCGUCACUCAGCAGGGCAUCUCUGAGAGAAAUGCC the self-cleavage was 0.1.
UACGUAGGUGGUUUUCCCCUGAUAGUGCUAAGGGGGCCUGGAAGUUUGGACUGGGCAGGGCUCAACACAGCGUGGCUAAGUGGCUGUGGCUAGACUGCCUCUCUGGAUUCCUCGUCACUCAGCAGGGCAUCUCUGAGAGAAAUGCC gave a self-cleavage of 0.05.
For UACGUAGGUGGUUUUCCCCUGAUAGUGCUAAGGGGGCCUGGAAGUUUGGACUGGGCAGAGCUCAACACAGAGUGGCAGAGUGGCUGUGGCUAGACUGCCUCUCUGGAUUCCUCGUCACUCAGCAGGGCAUCUCUGAGAGAAAUGCC, the self-cleavage was 0.19.
Variant UACGUAGGUGGUUUUCCCCUGAUAGUGCUAAGGGGGCCUGGAAGUUUGGACUGGGCAGAGCUCAACACAGCGUGGCAAAGUGGCUGUGGCUAGACUGCCUCUCUGGGUUCCUCGUCACUCAGCAGGGCAUCUCUGAGGGAAAUGCC has a self-cleavage of 1.42.
UACGUAGGUGGUUUUCCCCUGAUAGUGCUAAGGGGGCCUGGAAGUUUGGACUGGGCAGAGCUCAACACAGCGUGGCAAUGUGGCUGUGGCUAGACUGCCUCUCUGGAUUCCUCGUCACUCAGCAGGGCAUCACUGAGAGAAAUGCC gave a self-cleavage of 1.83.
For UACGUAGGUGGUUUUCCCCUGAUAGUGCUAAGGGGGCCUGGGAGUUUGGACUGGGCAGAGCUCAACACAGCGUGGCAAAGUGGCUGUGGCUAGACUGCCUCUCUGGAUCCCUCGUCACUCAGCAGGGCAUCUCUGAGAGAAAUGCC, the self-cleavage was 1.24.
Work on UACGUAGGUGGUUUUCCCCUGAUAGUGCUAAGGGGGACUGGAAGUUUGGACUGGGCAGAGCUCAACACAGCGUGGCAAAGUGGCUGGGGCUAGACUGCCUCUCUGGAUUCCUCGUCACUCAGCAGGGCAUCUCUGAGAGAAAUGCC yielded a self-cleavage of 0.12.
In the case of UACGUAGGUGGUUUUCCCCUGAUAGUGCUAAGGGGGCCUGGAAGUUUGGACUGAGCAGAGCUCAACACAGCGUGGCAAAGUGACUGUGGCUAGACUGCCUCUCUGGAUUCCUCGUCACUCAGCAGGGCAUCUCUGAGAGAAAUGCC, the self-cleavage is reported as 0.52.
